Assay [1] deals with T1, His-tagged P3028 (human, not fully specified).
T1 construct: the tag is put first after 'PGE73=His-tag-P3028'; also called PGE73; not shown: His-tag
T1 peptide: {His‑tag}-VFDEFKPLVEEPQNLIK
In words: chip ELISA.

Assay [2] concerns the target T2, His-tagged P3028 (human, also: His-tag, terminus and sequence not given here).
T2 construct: in solution at 0.5 ug/mL over the peptide cards; found with anti-His-tag antibody and rabbit anti-mouse peroxidase (rampo); also called PGE73; not shown: His-tag
T2 peptide: VFDEFKPLVEEPQNLIK
In words: PEPSCAN chip ELISA, His-P3028 in solution.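 Further: score is the raw OD at 405 nm from peroxidase colour with ABTS, imaged by CCD camera before and after staining, with wells showing air bubbles set to zero.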

No end group written: not given here.

The molecule KKLATFFVKLSLFTER [P28R D4A] registered an ELISA signal in assay [1] of 494.

On to KILDTFFVKLSLFTER [SEQ ID NO 467], for which, in assay [2], the “RAMPO Score” value amounted to 331 rampo score.

On to KKLDTFFVMLSLFTER [SEQ ID NO 509], for which the “RAMPO Score” value in assay [2] amounted to 283 rampo score.

Take KKLDTFFVKLSLFTEH [SEQ ID NO 528]: the “RAMPO Score” value in assay [2] was 239 rampo score.

KKLDTFFVKLSLFTRR [SEQ ID NO 531]: the “RAMPO Score” value in assay [2] was determined as 237 rampo score.

In the case of KKLDTFFVKLSYFTER [SEQ ID NO 475], the “RAMPO Score” value in assay [2] worked out at 320 rampo score.

For the molecule KKLDTFFVKLSLFTKR [SEQ ID NO 471], the “RAMPO Score” value in assay [2] stood at 324 rampo score.

With KKLDTFFVVLSLFTER [SEQ ID NO 523], in assay [2], the “RAMPO Score” value amounted to 248 rampo score.

Take KKLDTFFVKLSPFTER [SEQ ID NO 497]: in assay [2], the “RAMPO Score” value turned out to be 297 rampo score.

Turning to KKLDDFFVKLSLFTER [SEQ ID NO 500], the “RAMPO Score” value in assay [2] amounted to 295 rampo score.

Take KKLDTFFVKWSLFTER [SEQ ID NO 482]: the “RAMPO Score” value in assay [2] stood at 316 rampo score.

In the case of KKLDTFFTKLSLFTER [SEQ ID NO 496], the “RAMPO Score” value in assay [2] was found to be 298 rampo score.

With KCLDTFFVKLSLFTER [SEQ ID NO 499], the “RAMPO Score” value in assay [2] was found to be 295 rampo score.

Turning to WKLDTFFVKLSLFTER [SEQ ID NO 507], the “RAMPO Score” value in assay [2] was determined as 284 rampo score.

For KKLDTFFVKLSLFTEM [SEQ ID NO 529], in assay [2], the “RAMPO Score” value amounted to 238 rampo score.

KKLDTFFVKLSLFQER [SEQ ID NO 493]: in assay [2], the “RAMPO Score” value came to 301 rampo score.

Regarding KKLDTFFVKLSLFTMR [SEQ ID NO 524], the “RAMPO Score” value in assay [2] was determined as 247 rampo score.

As for KKLDTFFVKCSLFTER [SEQ ID NO 508], the “RAMPO Score” value in assay [2] stood at 283 rampo score.

For the molecule KKLDTFFVWLSLFTER [SEQ ID NO 526], the “RAMPO Score” value in assay [2] was 245 rampo score.

Take KKLRTFFVKLSLFTER [SEQ ID NO 480]: the “RAMPO Score” value in assay [2] came out at 317 rampo score.

Turning to KKLGTFFVKLSLFTER [SEQ ID NO 515], the “RAMPO Score” value in assay [2] was 264 rampo score.

As to KKLDLFFVKLSLFTER [SEQ ID NO 484], the “RAMPO Score” value in assay [2] came out at 311 rampo score.

Consider KKLDTFFVKLALFTER [SEQ ID NO 477], for which, in assay [2], the “RAMPO Score” value worked out at 318 rampo score.

For KKLDKFFVKLSLFTER [SEQ ID NO 530], the “RAMPO Score” value in assay [2] is 237 rampo score.

Consider KKLDTFFQKLSLFTER [SEQ ID NO 513], for which the “RAMPO Score” value in assay [2] came out at 271 rampo score.

As for KKLDTFFAKLSLFTER [SEQ ID NO 495], the “RAMPO Score” value in assay [2] is 299 rampo score.

Consider KKLDTFFVNLSLFTER [SEQ ID NO 518], for which the “RAMPO Score” value in assay [2] came out at 256 rampo score.

Turning to KYLDTFFVKLSLFTER [SEQ ID NO 494], in assay [2], the “RAMPO Score” value amounted to 301 rampo score.

For KWLDTFFVKLSLFTER [SEQ ID NO 490], in assay [2], the “RAMPO Score” value worked out at 304 rampo score.

Consider KKLDTFFVKLSLYTER [SEQ ID NO 503], for which the “RAMPO Score” value in assay [2] is 291 rampo score.

On to KKLLTFFVKLSLFTER [SEQ ID NO 491], for which the “RAMPO Score” value in assay [2] came to 303 rampo score.

Turning to KKLDTFFVKLKLFTER [SEQ ID NO 473], the “RAMPO Score” value in assay [2] worked out at 323 rampo score.

As for KKLDTFFVKHSLFTER [SEQ ID NO 502], the “RAMPO Score” value in assay [2] is 293 rampo score.

On to KKLDTFFVKLSLFCER [SEQ ID NO 520], for which the “RAMPO Score” value in assay [2] is 254 rampo score.

In the case of KKLDTFFVHLSLFTER [SEQ ID NO 488], the “RAMPO Score” value in assay [2] was found to be 306 rampo score.

On to KKLDTFDVKLSLFTER [SEQ ID NO 492], for which the “RAMPO Score” value in assay [2] stood at 301 rampo score.

Take KKLKTFFVKLSLFTER [SEQ ID NO 512]: the “RAMPO Score” value in assay [2] was found to be 274 rampo score.

Turning to YKLDTFFVKLSLFTER [SEQ ID NO 483], the “RAMPO Score” value in assay [2] amounted to 315 rampo score.

For KKLDTFFVKLSLFYER [SEQ ID NO 514], the “RAMPO Score” value in assay [2] came to 270 rampo score.

KKLDTFFVKKSLFTER [SEQ ID NO 506]: the “RAMPO Score” value in assay [2] worked out at 285 rampo score.

As to KKLDFFFVKLSLFTER [SEQ ID NO 504], the “RAMPO Score” value in assay [2] is 290 rampo score.

For the molecule KKLDTFFVKLSLFTEV [SEQ ID NO 521], in assay [2], the “RAMPO Score” value came out at 254 rampo score.

Regarding KALDTFFVKLSLFTER [SEQ ID NO 485], in assay [2], the “RAMPO Score” value was determined as 309 rampo score.

KKLHTFFVKLSLFTER [SEQ ID NO 479]: the “RAMPO Score” value in assay [2] was 317 rampo score.

For KVLDTFFVKLSLFTER [SEQ ID NO 481], the “RAMPO Score” value in assay [2] worked out at 317 rampo score.

Take KKLDTFFVKLSLFTLR [SEQ ID NO 525]: the “RAMPO Score” value in assay [2] was found to be 246 rampo score.

Turning to KKLDTFFVKLELFTER [SEQ ID NO 532], in assay [2], the “RAMPO Score” value turned out to be 234 rampo score.

Regarding KKLDTFFVKLILFTER [SEQ ID NO 505], the “RAMPO Score” value in assay [2] is 289 rampo score.

With KKLDTFFCKLSLFTER [SEQ ID NO 519], the “RAMPO Score” value in assay [2] is 254 rampo score.

KKLDTFFVKLPLFTER [SEQ ID NO 470]: the “RAMPO Score” value in assay [2] worked out at 328 rampo score.

Consider KTLDTFFVKLSLFTER [SEQ ID NO 468], for which the “RAMPO Score” value in assay [2] came out at 331 rampo score.

With KKLDIFFVKLSLFTER [SEQ ID NO 501], the “RAMPO Score” value in assay [2] was 293 rampo score.

Take KSLDTFFVKLSLFTER [SEQ ID NO 510]: the “RAMPO Score” value in assay [2] was 281 rampo score.

Turning to KKLDTFFVKLSLFKER [SEQ ID NO 517], in assay [2], the “RAMPO Score” value was determined as 259 rampo score.

Regarding KKLDTRFVKLSLFTER [SEQ ID NO 486], the “RAMPO Score” value in assay [2] was found to be 309 rampo score.

For the molecule KKLNTFFVKLSLFTER [SEQ ID NO 498], the “RAMPO Score” value in assay [2] was found to be 296 rampo score.

With KKLDTFFVQLSLFTER [SEQ ID NO 469], the “RAMPO Score” value in assay [2] stood at 330 rampo score.

With KKLDTFFVKLSLFAER [SEQ ID NO 489], the “RAMPO Score” value in assay [2] came out at 305 rampo score.

Take KKLDTFFVELSLFTER [SEQ ID NO 527]: in assay [2], the “RAMPO Score” value was 240 rampo score.

For the molecule KKLDTFFVKLFLFTER [SEQ ID NO 522], the “RAMPO Score” value in assay [2] was 250 rampo score.

Consider KKLDTFFVKLDLFTER [SEQ ID NO 474], for which, in assay [2], the “RAMPO Score” value is 322 rampo score.

Take KKLDTFFVSLSLFTER [SEQ ID NO 511]: the “RAMPO Score” value in assay [2] was 274 rampo score.

Consider KKLDTFFVKLWLFTER [SEQ ID NO 472], for which the “RAMPO Score” value in assay [2] was determined as 324 rampo score.

Consider KKLDTFFVKLSLFTHR [SEQ ID NO 478], for which the “RAMPO Score” value in assay [2] was found to be 318 rampo score.

For the origin of these results see patent US20170298096A1 (CANIMGUIDE THERAPEUTICS, published 2017).
